Source: paper PMC4994864

Target: T1, His-yTop3 (Saccharomyces cerevisiae, UniProt P13099 1-656)
T1 sequence: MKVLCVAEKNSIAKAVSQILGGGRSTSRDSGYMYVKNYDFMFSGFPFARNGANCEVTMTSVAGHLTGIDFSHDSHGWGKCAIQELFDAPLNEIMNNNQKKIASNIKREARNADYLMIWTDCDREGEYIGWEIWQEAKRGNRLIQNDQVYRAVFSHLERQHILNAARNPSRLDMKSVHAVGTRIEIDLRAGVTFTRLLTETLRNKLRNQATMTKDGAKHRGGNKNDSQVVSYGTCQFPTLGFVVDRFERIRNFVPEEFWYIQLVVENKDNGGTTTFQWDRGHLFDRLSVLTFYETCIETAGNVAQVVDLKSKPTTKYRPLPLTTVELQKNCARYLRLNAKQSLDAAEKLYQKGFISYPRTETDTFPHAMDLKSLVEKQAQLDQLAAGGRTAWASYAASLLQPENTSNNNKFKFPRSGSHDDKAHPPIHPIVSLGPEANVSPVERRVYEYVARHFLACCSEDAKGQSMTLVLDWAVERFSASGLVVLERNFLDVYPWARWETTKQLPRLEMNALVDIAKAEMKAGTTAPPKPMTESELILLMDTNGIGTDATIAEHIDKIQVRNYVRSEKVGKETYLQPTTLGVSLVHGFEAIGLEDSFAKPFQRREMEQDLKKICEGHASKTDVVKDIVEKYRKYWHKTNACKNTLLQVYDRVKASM
Assay: EMSA; gel-shift band at 50 nM protein in the RNA topoisomerase reaction; abolished by phenol-chloroform; RNA topoisomerase reaction mixture; buffer, salt, pH and temperature not given in the material

B1: 128-nt circular RNA topoisomerase substrate (structured_RNA)
RNA: GGGAGAUUUUUUUUUUUUUUUUUUUUGUCAGACGGAUCUUUUUUUUUUUUUUUUUUUUUCUCCCGACUGGUUUUUUUUUUUUUUUUUUUUGAUCCGUCUGACUUUUUUUUUUUUUUUUUUUUCCAGUC
modifications: circularised with T4 RNA ligase (5' end joined to 3' end)
B1: binds.
